In patent publication US20140302123A1 one finds cell death (% of dead cells among peptide loaded cells), U373MG, 3 h, 25 microM, propidium iodide data, which are given here for one substance.

The target in the test is PTPN4 as expressed in U373MG cells (human) (UniProt P29074). The test can be described thus: cell-based or functional assay.
Sequence of PTPN4 as expressed in U373MG cells (human) (P29074 whole entry): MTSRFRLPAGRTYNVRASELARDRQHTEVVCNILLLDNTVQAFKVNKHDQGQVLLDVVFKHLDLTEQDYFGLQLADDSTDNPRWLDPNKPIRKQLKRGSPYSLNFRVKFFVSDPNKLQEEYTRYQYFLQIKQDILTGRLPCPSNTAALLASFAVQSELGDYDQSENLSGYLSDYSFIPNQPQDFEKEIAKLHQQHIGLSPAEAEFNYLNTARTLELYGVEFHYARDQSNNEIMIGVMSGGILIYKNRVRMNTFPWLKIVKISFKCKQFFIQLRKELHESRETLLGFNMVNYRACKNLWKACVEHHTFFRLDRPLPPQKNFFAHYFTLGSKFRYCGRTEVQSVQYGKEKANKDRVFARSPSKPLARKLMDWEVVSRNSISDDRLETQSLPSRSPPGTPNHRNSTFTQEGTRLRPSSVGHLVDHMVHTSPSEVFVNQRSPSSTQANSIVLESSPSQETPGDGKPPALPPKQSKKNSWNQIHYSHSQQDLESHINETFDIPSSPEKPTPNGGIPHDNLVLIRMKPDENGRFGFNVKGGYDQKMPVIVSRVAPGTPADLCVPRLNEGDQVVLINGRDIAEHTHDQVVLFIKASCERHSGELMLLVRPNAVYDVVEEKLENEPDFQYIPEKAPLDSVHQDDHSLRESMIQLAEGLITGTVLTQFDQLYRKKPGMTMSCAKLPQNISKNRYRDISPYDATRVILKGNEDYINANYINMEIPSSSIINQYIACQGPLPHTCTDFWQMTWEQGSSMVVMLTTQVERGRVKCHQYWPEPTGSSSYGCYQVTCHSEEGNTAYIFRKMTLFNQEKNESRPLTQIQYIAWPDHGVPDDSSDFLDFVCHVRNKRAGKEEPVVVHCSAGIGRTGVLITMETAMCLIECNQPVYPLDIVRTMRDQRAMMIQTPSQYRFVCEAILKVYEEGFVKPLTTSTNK

In turn, “Tat-conjugated, FITC-labelled GluN2A-16 (peptide)” displayed a cell death (% of dead cells among peptide loaded cells), U373MG, 3 h, 25 microM, propidium iodide of 29%.
